Among the targets are HLA-A*33:01; HLA-A*31:01; HLA-A*03:01; HLA-A*68:01; HLA-A*11:01.
Holding throughout (experiment): IEDB peptide-MHC binding, purified MHC/competitive/radioactivity; filed as Kd, often an IC50 or EC50 that approximates it; ≥ and ≤ were set here for values at or beyond the usual limits of such assays
Where [1] appears, read: source organism: SARS coronavirus Tor2.
[2] abbreviates: source organism: Vaccinia virus WR.
[3] abbreviates: source organism: Dengue virus 2 Jamaica/1409/1983.
Where [4] appears, read: source organism: Dengue virus 2 Peru/IQT2913/1996.
[5] abbreviates: source organism: Dengue virus 3 Martinique/1243/1999.
The mark [6] stands for this setting: source organism: Lymphocytic choriomeningitis virus (strain Armstrong).
Setting [7] is: source organism: Mammarenavirus machupoense.

In general, Kd refers to the constant that tells how readily two partners part at equilibrium.

In the case of AIYVFCISLK, the Kd in the test with HLA-A*33:01 (setting [1]) was no less than 48900 nM; in the test with HLA-A*31:01 (setting [1]), 11300 nM; with HLA-A*03:01 (setting [1]) it was 161 nM; in the test with HLA-A*68:01 (setting [1]), 8800 nM; in the test with HLA-A*11:01 (setting [1]), 489 nM.
Consider ALDGTFQRK, for which the Kd was no less than 77700 nM with HLA-A*33:01 (setting [2]); no less than 37900 nM with HLA-A*31:01 (setting [2]); 12.5 nM with HLA-A*03:01 (setting [2]); no less than 47200 nM with HLA-A*68:01 (setting [2]); 30.4 nM in the test with HLA-A*11:01 (setting [2]).
For ALNDMGKVRK, the Kd with HLA-A*03:01 (setting [3]) was determined as 36.5 nM.
On to ALNDTWKIEK, for which the Kd with HLA-A*03:01 (setting [4]) is 60.3 nM; with HLA-A*11:01 (setting [4]) it was 398 nM.
Regarding AMCTNTFVLK, the dissociation constant Kd in the test with HLA-A*03:01 (setting [5]) turned out to be 20.3 nM; with HLA-A*11:01 (setting [5]), 20.9 nM.
Turning to AQRRGRVGR, in the test with HLA-A*31:01 (setting [5]), the Kd stood at 13.2 nM.
For the sequence ATDYIASGQR, the Kd with HLA-A*33:01 (setting [2]) stood at 2110 nM; with HLA-A*31:01 (setting [2]), 197 nM; in the test with HLA-A*03:01 (setting [2]) it was 148 nM; in the test with HLA-A*68:01 (setting [2]), 192 nM; in the test with HLA-A*11:01 (setting [2]) it was 73.2 nM.
Take ATEGALNTPK: the equilibrium dissociation constant (Kd) was no less than 44600 nM with HLA-A*33:01 (setting [1]); 2820 nM with HLA-A*31:01 (setting [1]); 82 nM with HLA-A*03:01 (setting [1]); 220 nM with HLA-A*68:01 (setting [1]); 4.73 nM with HLA-A*11:01 (setting [1]).
The matching figures for AVVYRGTTTY: 19300 nM, 5040 nM, 123 nM, 861 nM and 492 nM.
Consider CANGWIQYDK, for which the Kd in the test with HLA-A*33:01 (setting [2]) is no less than 27000 nM; with HLA-A*31:01 (setting [2]), 73.6 nM; with HLA-A*03:01 (setting [2]), 888 nM; with HLA-A*68:01 (setting [2]) it was 19.1 nM; with HLA-A*11:01 (setting [2]), 599 nM.
The matching figures for CSRMLDTSEK: no less than 70000 nM, 1560 nM, 1010 nM, 7700 nM and 1610 nM.
Regarding DFAVSKGFFK, the Kd with HLA-A*33:01 (setting [1]) is 50.1 nM; with HLA-A*31:01 (setting [1]) it was 1040 nM; with HLA-A*03:01 (setting [1]), 768 nM; in the test with HLA-A*68:01 (setting [1]) it was 16.8 nM; with HLA-A*11:01 (setting [1]), 107 nM.
Consider DFWRLYNSLK, for which the Kd with HLA-A*33:01 (setting [2]) was determined as 3.13 nM; in the test with HLA-A*31:01 (setting [2]), 2570 nM; in the test with HLA-A*03:01 (setting [2]), 1650 nM; with HLA-A*68:01 (setting [2]), 730 nM; with HLA-A*11:01 (setting [2]) it was 1010 nM.
Regarding DHVSTLLTWH, the dissociation constant Kd with HLA-A*33:01 (setting [6]) was no less than 70000 nM; with HLA-A*31:01 (setting [6]), 8610 nM; with HLA-A*03:01 (setting [6]), no less than 22400 nM; with HLA-A*68:01 (setting [6]) it was 12300 nM; in the test with HLA-A*11:01 (setting [6]), no less than 69700 nM.
For the sequence DIALALEQY, the dissociation constant (Kd) with HLA-A*33:01 (setting [2]) is no less than 23900 nM; in the test with HLA-A*31:01 (setting [2]), 10500 nM; in the test with HLA-A*03:01 (setting [2]), no less than 78000 nM; with HLA-A*68:01 (setting [2]), 364 nM; with HLA-A*11:01 (setting [2]), no less than 77900 nM.
For DLTQIFEVY, in that order: 938 nM, 1370 nM, 11100 nM, 857 nM and 463 nM.
For DTSASEIKDR, in that order: 835 nM, 7970 nM, 14800 nM, 17.6 nM and 1130 nM.
For DTSYYVKEY, in that order: no less than 77700 nM, no less than 77900 nM, no less than 78000 nM, 69.1 nM and 14300 nM.
For EIINDKGKQY, the Kd with HLA-A*33:01 (setting [2]) is no less than 70000 nM; in the test with HLA-A*31:01 (setting [2]), 12800 nM; in the test with HLA-A*03:01 (setting [2]), no less than 70100 nM; in the test with HLA-A*68:01 (setting [2]) it was 3990 nM; in the test with HLA-A*11:01 (setting [2]), no less than 69800 nM.
In the case of EKFGHLCKYH, the Kd with HLA-A*33:01 (setting [7]) was no less than 70000 nM; with HLA-A*31:01 (setting [7]) it was no less than 70000 nM; in the test with HLA-A*03:01 (setting [7]) it was no less than 70000 nM; with HLA-A*68:01 (setting [7]), no less than 70100 nM; with HLA-A*11:01 (setting [7]) it was no less than 69700 nM.
Consider EMVDELVTR, for which the dissociation constant Kd is 94.3 nM with HLA-A*33:01 (setting [2]); 28.5 nM with HLA-A*31:01 (setting [2]); no less than 78000 nM with HLA-A*03:01 (setting [2]); 2.54 nM with HLA-A*68:01 (setting [2]); no less than 40900 nM with HLA-A*11:01 (setting [2]).
ESNILDIDLR: in the test with HLA-A*68:01 (setting [3]), the Kd came to 160 nM.
In the case of EVRIPVDLVK, the Kd with HLA-A*33:01 (setting [2]) is 17000 nM; in the test with HLA-A*31:01 (setting [2]) it was 9020 nM; in the test with HLA-A*03:01 (setting [2]) it was no less than 64800 nM; in the test with HLA-A*68:01 (setting [2]), 656 nM; with HLA-A*11:01 (setting [2]), 1660 nM.
EVYTQLCDHR: the Kd in the test with HLA-A*68:01 (setting [5]) came to 14.3 nM.
Take FAYVMNIER: the Kd with HLA-A*33:01 (setting [2]) was 12.5 nM; with HLA-A*31:01 (setting [2]), 37.2 nM; in the test with HLA-A*03:01 (setting [2]) it was 4340 nM; with HLA-A*68:01 (setting [2]), 0.38 nM; with HLA-A*11:01 (setting [2]), 65.5 nM.
As for FFTYLCGFIK, the Kd in the test with HLA-A*33:01 (setting [1]) amounted to 1200 nM; in the test with HLA-A*31:01 (setting [1]), 612 nM; in the test with HLA-A*03:01 (setting [1]), 440 nM; in the test with HLA-A*68:01 (setting [1]), 206 nM; with HLA-A*11:01 (setting [1]), 963 nM.

Source of the values: the Immune Epitope Database (IEDB).
